The target in the assay is T1, knob Fc F241R/F243S (Homo sapiens (Human), UniProt P0DOX5 223-449 = IgG part, F241R; F243S).
T1 construct: Positions are EU numbers; the entry starts at 221; also called Knob F241R/F243S; F241R/F243S mutant knob
The assay is described as follows: SPR (BioRad ProteOn), immobilized ligand Knob F241R/F243S, analyte Knob F241S/F243R at 6.25-200 nM. The protocol:
FIGS. 11A-11E are a series of the surface plasmon resonance (SPR) spectra curves from experiments using an immobilized ligand. The analyte was passed over the ligand and the homodimerization was monitored. Analyte concetrations were tested at 6.25 nM, 12.5 nM, 25 nM, 50 nM, 100 nM and 200 nM. The ligands were: (A) The knob wild-type, (B) hole wild-type, (C) knob F241R/F243S, (D) knob F241S/F243R, and (E) hole F241S/F243R.
Using a BioRad ProteOn™ system, knob wild-type, hole wild-type, knob F241R/F243S, knob F241S/F243R, and hole F241S/F243R ligands were immobilized on an NHS activated sensor. The analyte, knob F241S/F243R, was passed over the sensor in 25 mM Tris 150 mM NaCl 0.05% Tween-20 pH 8.0. Analyte concentrations were 200 nM, 100 nM, 50 nM, 25 nM, 12.5 nM, and 6.25 nM. The ProteOnM chip was regenerated between each analyte concentration using 10 mM Glycine pH3. […] The Kd for the heterodimers is in the single digit nanomolar range in both cases.

B1: knob Fc F241S/F243R (other, name in EU numbering)
chain: DKTHTSPPSPAPELLGGPSVSLRPPKPKDTLMISRTPEVTCVVVDVSHEDPEVKFNWYVDGVEVHNAKTKPREEQYNSTYRVVSVLTVLHQDWLNGKEYKCKVSNKALPAPIEKTISKAKGQPREPQVYTLPPSREEMTKNQVSLWCLVKGFYPSDIAVEWESNGQPENNYKTTPPVLDSDGSFFLYSKLTVDKSRWQQGNVFSCSVMHEALHNHYTQKSLSLSPGK
notes: Positions are EU numbers; the entry starts at 221; This was the analyte in the SPR experiment; also called Knob F241S/F243R; F241S/F243R mutant knob
On to B1, for which the binding result is on record as “no binding (tested: 200 nM)”.

The values are drawn from patent US20200377604A1 (Genentech, published 2020).
